Laboratory results as given in the MegaScale stability set (Tsuboyama et al. 2023).

B1: EEHEE_rd4_0647 (parent)
chain: MQVTWGNVTVTFSNPEEAKKYAEKVARKLGGQVELHNGQFRIK
B2: HEEH_KT_rd6_0790 (parent)
chain: SEEEEEEWRRAKERGEEIIILGILWKPNDEEAERRIKEALRRV

Variants of: B1
Test: folding stability dG (cDNA display proteolysis); higher = more stable
Conditions: PBS, room temperature

Folding stability dG [kcal/mol]: each site, then its substitutions
K43: Q 2.59 | M 2.86 | F 2.96 | I 3.52 | D 1.93 | C 3.45 | W 2.67 | H 2.66 | A 2.57 | N 2.59 | L 3.2 | T 3.14 | G 2.04 | P 1.8 | V 3.52 | E 2.28 | Y 2.88 | S 2.64 | R 2.98
F40: R 0.666 | W 3.25 | A 0.89 | I 2.49 | S 0.308 | N 0.635 | T 0.626 | P 0.658 | D 0.455 | L 2.85 | C 1.51 | Q 0.812 | M 1.95 | G 0.325 | V 1.46 | Y 3.2 | E 0.453 | K 0.481 | H 1.07
I42: C 1.95 | A 0.487 | E 0.453 | L 1.09 | Y 0.752 | D 0.522 | P 0.784 | M 0.646 | T 0.547 | W 1.13 | F 1.1 | K 0.538 | Q 0.449 | S 0.574 | R 0.514 | N 0.564 | V 2.52 | G 0.609 | H 0.692
R41: K 2.53 | N 2.37 | I 3.53 | S 2.11 | E 2.25 | W 3.15 | M 2.95 | P 0.495 | Q 2.66 | D 1.31 | A 2.05 | F 3.5 | H 3.02 | G 1.3 | T 2.84 | L 3.16 | C 2.94 | V 3.5 | Y 3.35
Q39: N 2.75 | V 2.99 | S 2.65 | P 0.269 | R 2.45 | W 1.7 | Y 2.29 | T 2.69 | M 2.61

Variants of: B2
Test: as above
Conditions: PBS, room temperature

Folding stability dG [kcal/mol] of substitutions, site by site:
R42: P 1.33 | I 2 | M 1.98 | E 1.75 | H 1.79
R34: E 2.12 | M 2.12 | K 2.06 | F 1.9 | A 2.22 | I 1.77
R10: V 1.72 | H 1.76 | S 1.5 | P 0.8
R9: W 1.92 | E 1.94 | C 1.75 | T 1.74 | H 1.83 | M 1.9
E33: R 1.29 | Y 1.71 | A 1.72 | K 1.09 | M 1.7 | I 1.49
E4: I 3.14 | G 2.04 | L 3.4 | F 2.78 | M 2.82 | Y 2.93 | R 2.03 | H 2.41 | N 1.94
N28: Q 1.82 | G 2.81 | D 2.19 | V 1.1
E6: N 1.85 | P 1.35 | R 1.65 | F 1.93 | H 1.61 | I 1.77
K12: R 2.07 | E 0.988 | V 1.89 | P 1.02 | S 1.44 | Q 1.9 | C 2.01 | M 2.37
V43: K 2.59 | C 2.36 | Q 2.26 | H 2.45 | D 1.69 | R 2.75 | E 2.08 | A 2.38
G15: H 1.53 | I 1.34 | A 1.39 | K 1.6
L21: W 1.26 | N 1.24 | E 1.28 | V 1.34 | K 1.66 | F 1.97 | P 0.723 | G 1.27
E31: Q 1.72 | K 1.32 | F 1.49 | D 2.14 | Y 1.56
E7: G 1.81 | A 2.78 | Q 2.44 | I 2.36 | S 2.31 | T 2
E5: P 1.91 | F 2.13 | I 1.95 | D 1.93 | H 1.8
W25: D 0.518 | A 0.981 | E 0.532 | K 0.664 | C 1.26
K37: V 2.44 | L 2.75 | H 2 | N 2.35 | A 1.92 | Q 2.04
I19: Y 2.2 | L 2.12 | A 1.33 | T 2.14 | R 1.77 | V 2.17
E3: G 2.33 | Y 2.44 | N 2.36 | M 2.24 | V 2.33
A11: Y 1.95 | D 0.949 | Q 1.2 | W 2.05
D29: K 0.951 | M 1.05 | G 1 | V 1.25 | Y 1.24 | F 1.28
E2: S 2.61 | G 2.34 | K 2.19 | L 2.5 | D 2.16 | T 2.49 | I 2.44 | Y 2.58
A32: D 0.955 | V 1.37 | P 0.466 | Q 1.07 | Y 1.07 | S 1.96 | F 0.917
E16: D 1.95 | S 1.94 | M 1.93 | Y 1.9 | F 2.04
I18: N 1.06 | M 1.42 | A 1.59 | C 2.38 | R 1.3 | Y 1.86 | L 1.39 | Q 1.3
E30: G 1.78 | S 1.83 | D 2.25 | K 1.93
E17: Q 2.02 | D 1.81 | V 2.08 | T 2.16 | F 1.92 | H 1.89
R41: V 1.75 | Y 1.74 | I 1.76 | E 1.89 | F 1.76 | Q 1.92 | W 1.67 | K 2.06 | S 1.94 | G 1.74
S1: N 2.18 | Q 2.15 | C 2.82 | V 2.55 | E 2.23 | T 2.36
E38: F 1.03 | Y 0.909 | H 1.39 | R 1.52
A39: G 1.32 | L 2.06 | P 0.322 | F 1.69 | C 2.06 | M 2.1
W8: T 0.835 | V 1.12 | D 0.922 | R 0.881
I23: S 0.659 | D 0.764 | G 0.931 | W 0.765 | Y 0.775
R35: Y 1.18 | P 0.078 | V 1.48 | N 1.62 | K 2.09 | G 1.32 | S 1.71 | E 1.68
L40: C 1.55 | A 1.12 | T 0.781 | K 1.06
E13: K 1.86 | M 2.23 | A 2.22 | L 2.4 | R 1.77 | Q 2.15 | N 1.69 | V 1.94
L24: G 0.898 | Y 1.72
R14: P 1.09 | G 1.42 | Y 1.68 | D 1.49 | K 2.12 | I 1.92 | W 1.58
P27: G 1.21 | A 1.13 | S 1.02 | L 1.15 | V 1.2 | Q 1.2 | H 0.914
I20: D 0.628 | L 1.35 | K 0.813 | V 1.84
K26: W 1.53 | E 1.26 | Q 1.64 | P 1.26
I36: W 1.32 | T 1.06 | K 0.876 | M 1.39 | S 0.815
G22: E 1.12 | Y 1.98 | N 1.18 | H 1.1 | T 1.4
